# Data from PMC12689856, “A highly active Burkholderia polyketoacyl-CoA thiolase for production of triacetic acid lactone” (Nature Communications, 2025).
# B1: BktBcn (Cupriavidus necator H16) (protein)
# chain: MTREVVVVSGVRTAIGTFGGSLKDVAPAELGALVVREALARAQVSGDDVGHVVFGNVIQTEPRDMYLGRVAAVNGGVTINAPALTVNRLCGSGLQAIVSAAQTILLGDTDVAIGGGAESMSRAPYLAPAARWGARMGDAGLVDMMLGALHDPFHRIHMGVTAENVAKEYDISRAQQDEAALESHRRASAAIKAGYFKDQIVPVVSKGRKGDVTFDTDEHVRHDATIDDMTKLRPVFVKENGTVTAGNASGLNDAAAAVVMMERAEAERRGLKPLARLVSYGHAGVDPKAMGIGPVPATKIALERAGLQVSDLDVIEANEAFAAQACAVTKALGLDPAKVNPNGSGISLGHPIGATGALITVKALHELNRVQGRYALVTMCIGGGQGIAAIFERI
# notes: synthetic codon-optimised gene in pET-28a(+)-TEV, E. coli BL21(DE3), Ni-NTA; tetramer
# B2: 2-PS (Gerbera hybrid cultivar) (protein)
# chain: MGSYSSDDVEVIREAGRAQGLATILAIGTATPPNCVAQADYADYYFRVTKSEHMVDLKEKFKRICEKTAIKKRYLALTEDYLQENPTMCEFMAPSLNARQDLVVTGVPMLGKEAAVKAIDEWGLPKSKITHLIFCTTAGVDMPGADYQLVKLLGLSPSVKRYMLYQQGCAAGGTVLRLAKDLAENNKGSRVLIVCSEITAILFHGPNENHLDSLVAQALFGDGAAALIVGSGPHLAVERPIFEIVSTDQTILPDTEKAMKLHLREGGLTFQLHRDVPLMVAKNIENAAEKALSPLGITDWNSVFWMVHPGGRAILDQVERKLNLKEDKLRASRHVLSEYGNLISACVLFIIDEVRKRSMAEGKSTTGEGLDCGVLFGFGPGMTVETVVLRSVRVTAAVANGN
# notes: synthetic codon-optimised gene in pET-28a(+)-TEV, E. coli BL21(DE3), Ni-NTA
# Experiments:
# BktBbr [1] = target: T1, BktBbr (Burkholderia sp. RF2-non_BP3, UniProt Z9IDK7UI24, S254A); test: coupled alpha-KGDH assay, TAL formation; type: biochemical; conditions: acetoacetyl-CoA varied to 200 uM, acetyl-CoA fixed 200 uM; 22 °C
# T1 construct: synthetic codon-optimised gene in pET-28a(+)-TEV (NdeI/XhoI), E. coli BL21(DE3), Ni-NTA; tetramer
# BktBbr [2] = target: T2, BktBbr (Burkholderia sp. RF2-non_BP3, UniProt Z9IDK7UI24, G255A); test: coupled alpha-KGDH assay, TAL formation; type: biochemical; conditions: acetoacetyl-CoA varied to 200 uM, acetyl-CoA fixed 200 uM; 22 °C
# T2 construct: synthetic codon-optimised gene in pET-28a(+)-TEV (NdeI/XhoI), E. coli BL21(DE3), Ni-NTA; tetramer
# BktBbr [3] = target: T3, BktBbr (Burkholderia sp. RF2-non_BP3, UniProt Z9IDK7UI24); test: X-ray crystal structure, soaked, […] Å; type: binding; conditions: 20 mM ligand soak 3 h; CoA tunnel, water-mediated contacts; paper calls CoA esters covalent
# T3 construct: synthetic codon-optimised gene in pET-28a(+)-TEV (NdeI/XhoI), E. coli BL21(DE3), Ni-NTA; tetramer
# BktBbr [4] = target: T3, BktBbr; test: X-ray crystal structure, soaked, […] Å; type: binding; conditions: 20 mM ligand soak 3 h; active site and CoA tunnel; paper calls CoA esters covalent
# BktBbb = system: T4, BktBbb; test: coupled alpha-KGDH assay, NADH fluorescence; type: biochemical, Burkholderia sp. Bp8998; conditions: acetyl-CoA as only substrate, 12.5-400 uM; 50 mM sodium phosphate, 3 mM EDTA, 1 mM DTT; 22 °C; 3 uM enzyme
# T4 construct: gene bktB; synthetic codon-optimised gene in pET-28a(+)-TEV, E. coli BL21(DE3), Ni-NTA
# Description: coupled alpha-KGDH assay, NADH fluorescence on BktBbb | Michaelis-Menten plot of all BktBs and 2-PS with only acetyl-CoA or malonyl-CoA
# BktBbr [5] = target: T3, BktBbr; test: X-ray crystal structure, soaked, […] Å; type: binding; conditions: 20 mM ligand soak 3 h; active site and CoA tunnel; paper calls CoA esters covalent; remark: listed apart in the source
# [6] = system: CC(=O)SCCNC(=O)CCNC(=O)[C@H](O)C(C)(C)COP(=O)(O)OP(=O)(O)OC[C@H]1O[C@@H](n2cnc3c(N)ncnc32)[C@H](O)[C@@H]1OP(=O)(O)O; test: purified protein; conditions: acetyl-CoA as only substrate, 12.5-400 uM, 50 mM sodium phosphate, 3 mM EDTA, 1 mM DTT, 22 °C, 3 uM enzyme
# [7] = substrate: CC(=O)SCCNC(=O)CCNC(=O)[C@H](O)C(C)(C)COP(=O)(O)OP(=O)(O)OC[C@H]1O[C@@H](n2cnc3c(N)ncnc32)[C@H](O)[C@@H]1OP(=O)(O)O; test: coupled alpha-KGDH assay, NADH fluorescence; type: biochemical, Cupriavidus necator; conditions: acetyl-CoA as only substrate, 12.5-400 uM, 50 mM sodium phosphate, 3 mM EDTA, 1 mM DTT, 22 °C, 3 uM enzyme
# Description: coupled alpha-KGDH assay, NADH fluorescence on BktBcn | BktBbr and BktBba have slightly higher kcat/KM than BktBcn and BktBcl
# [8] = substrate: CC(C)(COP(=O)(O)OP(=O)(O)OC[C@H]1O[C@@H](n2cnc3c(N)ncnc32)[C@H](O)[C@@H]1OP(=O)(O)O)[C@@H](O)C(=O)NCCC(=O)NCCSC(=O)CC(=O)O; test: coupled alpha-KGDH assay, NADH fluorescence; type: biochemical, Gerbera hybrid cultivar; conditions: malonyl-CoA as only substrate, 12.5-400 uM, 22 °C
# Description: coupled alpha-KGDH assay, NADH fluorescence on 2-PS | Michaelis-Menten plot of all BktBs and 2-PS with only acetyl-CoA or malonyl-CoA
molecule,measurement,setting,value
CC(=O)CC(=O)SCCNC(=O)CCNC(=O)[C@H](O)C(C)(C)COP(=O)(O)OP(=O)(O)OC[C@H]1O[C@@H](n2cnc3c(N)ncnc32)[C@H](O)[C@@H]1OP(=O)(O)O [acetoacetyl-CoA],"coupled alpha-KGDH assay, TAL formation",BktBbr [1],purified mutants of S254A and G251A exhibited overall better enzyme activity for TAL formation
same,"coupled alpha-KGDH assay, TAL formation",BktBbr [2],while G255A performed comparably to the wild-type
same,"X-ray crystal structure, soaked, 2.4 Å",BktBbr [3],Interaction of acetoacetyl-CoA with BktBbr through water molecules (PDB ID: 9BWP)
CC(=O)SCCNC(=O)CCNC(=O)[C@H](O)C(C)(C)COP(=O)(O)OP(=O)(O)OC[C@H]1O[C@@H](n2cnc3c(N)ncnc32)[C@H](O)[C@@H]1OP(=O)(O)O [acetyl-CoA],"X-ray crystal structure, soaked, 2.2 Å",BktBbr [4],"bound with acetyl-CoA, acetoacetyl-CoA, and butyryl-CoA (PDB IDs: 9BWO, 9BWP, 9BWL)"
same,Km,BktBbb,43.3 ± 16.6 µM
CCCC(=O)SCCNC(=O)CCNC(=O)[C@H](O)C(C)(C)COP(=O)(O)OP(=O)(O)OC[C@H]1O[C@@H](n2cnc3c(N)ncnc32)[C@H](O)[C@@H]1OP(=O)(O)O [butyryl-CoA],"X-ray crystal structure, soaked, 2.1 Å",BktBbr [5],Binding of butyryl-CoA in the active site (PDB ID: 9BWL)
BktBbr (Burkholderia sp. RF2-non_BP3),Km,[6],23.99 ± 13.47 µM
same,kcat,[6],1.203 ± 0.115 s⁻¹
same,kcat/Km,[6],50200 ± 21000 M⁻¹ s⁻¹
B1,Km,[7],39.25 ± 20.43 µM
same,kcat,[7],1.41 ± 0.261 s⁻¹
same,kcat/Km,[7],41500 ± 16200 M⁻¹ s⁻¹
B2,Km,[8],6.93 ± 1.34 µM
same,kcat,[8],0.9298 ± 0.0345 s⁻¹
same,kcat/Km,[8],137000 ± 24800 M⁻¹ s⁻¹
